Experimental data published in IntAct's records for PubMed 11604410.

B1: Diablo IAP-binding mitochondrial protein (Mus musculus), Q9JIQ3 (parent)
chain: MAALRSWVTRSVCSLFRYRQRFPVLANSKKRCFSELIKPWHKTVLTGFGMTLCAVPIAQKSEPQSLSNEALMRRAVSLVTDSTSTFLSQTTYALIEAITEYTKAVYTLVSLYRQYTSLLGKMNSQEEDEVWQVIIGARVEMTSKQQEYLKLETTWMTAVGLSEMAAEAAYQTGADQASITARNHIQLVKSQVQEVRQLSQKAETKLAEAQTKELHQKAQEVSDEGADQEEEAYLRED
B2: Serine protease HTRA2, mitochondrial (Mus musculus), Q9JIY5 (parent)
chain: MAALKAGRGANWSLRAWRALGGIFWRKPPLLAPDLRALLTSGTPDSQIWMTYGTPSLPAQVPEGFLASRADLTSRTPDLWARLNVGTSGSSDQEARRSPGSRRREWLAVAVGAGGAVVLLLWGWGRGLSTVLAAVPAPPPTSPRSQYNFIADVVEKTAPAVVYIEILDRHPFSGREVPISNGSGFVVASDGLIVTNAHVVADRRRVRVRLPSGDTYEAMVTAVDPVADIATLRIQTKEPLPTLPLGRSADVRQGEFVVAMGSPFALQNTITSGIVSSAQRPARDLGLPQNNVEYIQTDAAIDFGNSGGPLVNLDGEVIGVNTMKVTAGISFAIPSDRLREFLHRGEKKNSWFGTSGSQRRYIGVMMLTLTPSILIELQLREPSFPDVQHGVLIHKVILGSPAHRAGLRPGDVILAIGEKLAQNAEDVYEAVRTQSQLAVRIRRGSETLTLYVTPEVTE

Variants of: B1
Conditions: with xiap_mouse Xiap

Row | Variant | effect of a mutation on the interaction
1 | A54G | disrupting interaction

Variants of: B2
Conditions: with xiap_human XIAP

Row | Variant | effect of a mutation on the interaction
2 | R144G | disrupting interaction

Variants of: B2
Conditions: with xiap_human XIAP
Remark: another data set of the same source

Row | Variant | effect of a mutation on the interaction
3 | Y147I | increasing interaction
